Measurements taken from US20250154231A1.
Like-named read-outs stand apart in the source and are kept apart here.

How the values were obtained:
Experiment in all cases: cell-based or functional assay
[1] = molecular target: SARS-CoV-2 spike (S) protein, Omicron BA.1 (SARS-CoV-2) (UniProt P0DTC2)
[2] = molecular target: SARS-CoV-2 spike (S) protein, Omicron BA.1.1 (SARS-CoV-2) (UniProt P0DTC2)
[3] = molecular target: SARS-CoV-2 spike (S) protein, Omicron BA.2 (SARS-CoV-2) (UniProt P0DTC2)
[4] = molecular target: SARS-CoV-2 spike (S) protein, Omicron BA.3 (SARS-CoV-2) (UniProt P0DTC2)
[5] = molecular target: SARS-CoV-2 spike (S) protein, Omicron BA.4.6 (SARS-CoV-2) (UniProt P0DTC2)
[6] = molecular target: SARS-CoV-2 spike (S) protein, Omicron BA.4/5 (SARS-CoV-2) (UniProt P0DTC2)
[7] = molecular target: SARS-CoV-2 spike (S) protein, Victoria strain (SARS-CoV-2) (UniProt P0DTC2)
[8] = molecular target: SARS-CoV-2 spike (S) protein, Omicron BA.1 (SARS-CoV-2) (UniProt P0DTC2); remark: listed apart in the source
[9] = molecular target: SARS-CoV-2 spike (S) protein, Omicron BA.1.1 (SARS-CoV-2) (UniProt P0DTC2); remark: listed apart in the source
[10] = molecular target: SARS-CoV-2 spike (S) protein, Omicron BA.2 (SARS-CoV-2) (UniProt P0DTC2); remark: listed apart in the source
[11] = molecular target: SARS-CoV-2 spike (S) protein, Omicron BA.2.75 (SARS-CoV-2) (UniProt P0DTC2)
[12] = molecular target: SARS-CoV-2 spike (S) protein, Omicron BA.3 (SARS-CoV-2) (UniProt P0DTC2); remark: listed apart in the source
[13] = molecular target: SARS-CoV-2 spike (S) protein, Omicron BA.4/5 (SARS-CoV-2) (UniProt P0DTC2); remark: listed apart in the source
[14] = molecular target: SARS-CoV-2 spike (S) protein, Victoria strain (SARS-CoV-2) (UniProt P0DTC2); remark: listed apart in the source
[15] = molecular target: SARS-CoV-2 Alpha spike (S) protein (SARS-CoV-2) (UniProt P0DTC2)
[16] = molecular target: SARS-CoV-2 Beta spike (S) protein (SARS-CoV-2) (UniProt P0DTC2)
[17] = molecular target: SARS-CoV-2 Delta spike (S) protein (SARS-CoV-2) (UniProt P0DTC2)
[18] = molecular target: SARS-CoV-2 Gamma spike (S) protein (SARS-CoV-2) (UniProt P0DTC2)
[19] = molecular target: SARS-CoV-2 Omicron BA.1 spike (S) protein of the live isolate (SARS-CoV-2) (UniProt P0DTC2)
[20] = molecular target: SARS-CoV-2 Omicron BA.1.1 spike (S) protein (SARS-CoV-2) (UniProt P0DTC2)
[21] = molecular target: SARS-CoV-2 Omicron BA.2 spike (S) protein (SARS-CoV-2) (UniProt P0DTC2)
[22] = molecular target: SARS-CoV-2 Victoria spike (S) protein (SARS-CoV-2) (UniProt P0DTC2)
[23] = molecular target: SARS-CoV-2 spike (S) protein, Omicron BA.2 (SARS-CoV-2) (UniProt P0DTC2); remark: listed apart in the source
[24] = molecular target: SARS-CoV-2 spike (S) protein, Omicron BA.2.3.20 (SARS-CoV-2) (UniProt P0DTC2)
[25] = molecular target: SARS-CoV-2 spike (S) protein, Omicron BA.2.75 (SARS-CoV-2) (UniProt P0DTC2); remark: listed apart in the source
[26] = molecular target: SARS-CoV-2 spike (S) protein, Omicron BA.2.75.2 (SARS-CoV-2) (UniProt P0DTC2)
[27] = molecular target: SARS-CoV-2 spike (S) protein, Omicron BA.4.6 (SARS-CoV-2) (UniProt P0DTC2); remark: listed apart in the source
[28] = molecular target: SARS-CoV-2 spike (S) protein, Omicron BA.4/5 (SARS-CoV-2) (UniProt P0DTC2); remark: listed apart in the source
[29] = molecular target: SARS-CoV-2 spike (S) protein, Omicron BJ.1 (SARS-CoV-2) (UniProt P0DTC2)
[30] = molecular target: SARS-CoV-2 spike (S) protein, Victoria strain (SARS-CoV-2) (UniProt P0DTC2); remark: listed apart in the source

Substance: Ly-CoV1404 (antibody)
- IC50, pseudoviral neutralization [1]: 0.002 µg/mL
- IC50, pseudoviral neutralization [2]: 0.001 µg/mL
- IC50, pseudoviral neutralization [3]: 0.001 µg/mL
- IC50, pseudoviral neutralization [4]: 0.002 µg/mL
- IC50, pseudoviral neutralization [5]: 0.001 µg/mL
- IC50, pseudoviral neutralization [6]: 0.002 µg/mL
- IC50, pseudoviral neutralization [7]: 0.001 µg/mL
- pseudovirus neutralisation IC50 [8]: 0.002 µg/mL
- pseudovirus neutralisation IC50 [9]: 0.001 µg/mL
- pseudovirus neutralisation IC50 [10]: 0.001 µg/mL
- pseudovirus neutralisation IC50 [11]: 0.002 µg/mL
- pseudovirus neutralisation IC50 [12]: 0.002 µg/mL
- pseudovirus neutralisation IC50 [13]: 0.002 µg/mL
- pseudovirus neutralisation IC50 [14]: 0.001 µg/mL

Substance: S309 (antibody)
- IC50, authentic virus neutralization [15]: 0.078 µg/mL
- IC50, authentic virus neutralization [16]: 0.082 µg/mL
- IC50, authentic virus neutralization [17]: 0.113 µg/mL
- IC50, authentic virus neutralization [18]: 0.076 µg/mL
- IC50, authentic virus neutralization [19]: 0.256 µg/mL
- IC50, authentic virus neutralization [20]: 1.12 µg/mL
- IC50, authentic virus neutralization [21]: 5.04 µg/mL
- IC50, authentic virus neutralization [22]: 0.04 µg/mL
- IC50, pseudoviral neutralization [1]: 0.113 µg/mL
- pseudovirus neutralisation IC50 [1]: 0.094 µg/mL
- IC50, pseudoviral neutralization [2]: 0.142 µg/mL
- pseudovirus neutralisation IC50 [2]: 0.138 µg/mL
- IC50, pseudoviral neutralization [3]: 0.638 µg/mL
- pseudovirus neutralisation IC50 [3]: 0.638 µg/mL
- IC50, pseudoviral neutralization [4]: 0.311 µg/mL
- pseudovirus neutralisation IC50 [4]: 0.228 µg/mL
- IC50, pseudoviral neutralization [5]: 1.03 µg/mL
- IC50, pseudoviral neutralization [6]: 0.689 µg/mL
- pseudovirus neutralisation IC50 [6]: 1.04 µg/mL
- IC50, pseudoviral neutralization [7]: 0.079 µg/mL
- pseudovirus neutralisation IC50 [7]: 0.13 µg/mL
- pseudovirus neutralisation IC50 [8]: 0.113 µg/mL
- pseudovirus neutralisation IC50 [9]: 0.142 µg/mL
- pseudovirus neutralisation IC50 [11]: 0.202 µg/mL
- pseudovirus neutralisation IC50 [12]: 0.311 µg/mL
- pseudovirus neutralisation IC50 [13]: 0.689 µg/mL
- pseudovirus neutralisation IC50 [14]: 0.079 µg/mL
- IC50, pseudoviral neutralization [23]: 0.638 µg/mL
- IC50, pseudoviral neutralization [24]: 0.977 µg/mL
- IC50, pseudoviral neutralization [25]: 0.202 µg/mL
- IC50, pseudoviral neutralization [26]: 0.465 µg/mL
- IC50, pseudoviral neutralization [27]: 1.03 µg/mL
- IC50, pseudoviral neutralization [28]: 0.689 µg/mL
- IC50, pseudoviral neutralization [29]: 0.431 µg/mL
- IC50, pseudoviral neutralization [30]: 0.079 µg/mL
